Measurements from patent US20040235714A1 (Amgen, published 2004).

T1: human GDNFR-α Related Receptor 2 (GRR2), endogenously expressed on LA-N-5 neuroblastoma cells (human, UniProt O00451 22-444)
T1 construct: whole, on cells; GDNFR-α mRNA was not detected; The cells also express Ret; also called hGRR2
T1 sequence (looked up): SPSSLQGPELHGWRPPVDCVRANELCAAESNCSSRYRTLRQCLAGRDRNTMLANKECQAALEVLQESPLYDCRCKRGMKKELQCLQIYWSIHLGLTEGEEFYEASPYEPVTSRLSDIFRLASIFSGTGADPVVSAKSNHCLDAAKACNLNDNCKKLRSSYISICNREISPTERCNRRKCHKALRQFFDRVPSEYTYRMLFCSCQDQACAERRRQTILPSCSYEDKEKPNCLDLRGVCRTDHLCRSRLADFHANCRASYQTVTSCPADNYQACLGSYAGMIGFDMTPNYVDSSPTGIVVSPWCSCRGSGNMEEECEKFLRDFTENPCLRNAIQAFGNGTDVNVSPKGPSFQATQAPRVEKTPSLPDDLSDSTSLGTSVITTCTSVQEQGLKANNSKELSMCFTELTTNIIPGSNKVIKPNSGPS

T2: rat GDNF receptor-alpha (GDNFR-α) expressed on cells from the rat cDNA clone (rat, UniProt Q62997 25-430, GPI-anchored to the cell membrane)
T2 construct: also called rGDNFR-α
T2 sequence: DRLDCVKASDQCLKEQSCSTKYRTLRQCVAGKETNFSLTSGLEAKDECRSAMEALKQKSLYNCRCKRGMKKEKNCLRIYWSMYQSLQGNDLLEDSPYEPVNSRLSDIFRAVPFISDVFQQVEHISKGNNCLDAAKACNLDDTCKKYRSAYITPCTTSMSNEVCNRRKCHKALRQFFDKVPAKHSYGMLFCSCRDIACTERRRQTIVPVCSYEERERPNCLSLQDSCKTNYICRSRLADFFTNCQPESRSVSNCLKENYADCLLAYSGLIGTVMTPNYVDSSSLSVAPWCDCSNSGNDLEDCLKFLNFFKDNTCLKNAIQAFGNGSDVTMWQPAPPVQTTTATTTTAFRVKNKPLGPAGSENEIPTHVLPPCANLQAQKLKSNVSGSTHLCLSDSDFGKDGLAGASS


Experiments:
[1] = molecular target: T1, human GDNFR-α Related Receptor 2 …; assay: summary of Example 10 (cell binding and cross-linking)
[2] = molecular target: T2, rat GDNF receptor-alpha (GDNFR-α) …; assay: GDNF binding to 293T cells expressing GDNFR-α; low affinity sites
[3] = molecular target: T2, rat GDNF receptor-alpha (GDNFR-α) …; assay: GDNF binding to 293T cells expressing GDNFR-α; high affinity sites
[4] = molecular target: T2, rat GDNF receptor-alpha (GDNFR-α) …; assay: equilibrium binding of [125I]GDNF to NGR-38 cells, Scatchard plot; low affinity site
Procedure: (§1) Following incubation, unbound [¹²⁵I]GDNF was removed and the radioactivity associated with the cells was determined as described in Experimental Procedures. Results are depicted in FIG. 7: (A) Equilibrium binding of [¹²⁵I]GDNF to NGR-38 cells (circles) and Neuro-2a cells (squares) in the presence (open circles and open squares) or absence (filled circles and filled squares) of unlabeled GDNF; (B) Scatchard analysis of [¹²⁵I]GDNF binding to NGR-38 cells.
(§2) Neuro-2a cells (ATCC #CCL 131) were transfected with an expression plasmid, as described above, using the Calcium Phosphate Transfection System (GIBCO/BRL) according to the manufacturer's directions. Transfected cells were selected for expression of the plasmid by growth in 400 μg/mL G418 antibiotic (Sigma). G418 resistant clones were expanded and assayed for GDNFR-α expression by binding to [¹²⁵I]GDNF (Amersham, Inc., custom iodination, catalog #IMQ1057). Cells from each clone were seeded at a density of 3×10⁴ cells/cm² in duplicate wells of 24-well tissue culture plates (Becton Dickinson) pre-coated with polyornithine. […] Cells were then washed four times with ice-cold washing buffer, lysed in 1 M NaOH, and the cell-associated radiolabel quantitated in a 1470 Wizard Automated Gamma Counter (Wallac Inc.). […]

[5] = molecular target: T2, rat GDNF receptor-alpha (GDNFR-α) …; assay: equilibrium binding of [125I]GDNF to NGR-38 cells, Scatchard plot; high affinity site
Procedure: as §1, §2

[6] = molecular target: T2, rat GDNF receptor-alpha (GDNFR-α) …; assay: 50 pM [125I]GDNF on NGR-16 cells with or without excess unlabeled GDNF, gamma counting
Procedure: (§3) Neuro-2a cells were transfected with a mammalian expression vector containing the rat GDNFR-α cDNA (such as the expression plasmid described above). Three clonal lines, NGR-16, NGR-33, and NGR-38 were tested for their ability to bind [¹²⁵I]GDNF. The unbound [¹²⁵I]GDNF was removed at the end of the incubation and the amount of radioactivity associated with the cells was determined as described in Experimental Procedures. […] Binding could be effectively competed by the addition of 500 nM unlabeled GDNF.
as §2

[7] = molecular target: T2, rat GDNF receptor-alpha (GDNFR-α) …; assay: 50 pM [125I]GDNF on NGR-33 cells with or without excess unlabeled GDNF, gamma counting
Procedure: as §3, §2

[8] = molecular target: T2, rat GDNF receptor-alpha (GDNFR-α) …; assay: 50 pM [125I]GDNF on NGR-38 cells with or without excess unlabeled GDNF, gamma counting
Procedure: as §3, §2

[9] = molecular target: T2, rat GDNF receptor-alpha (GDNFR-α) …; assay: Scatchard analysis of GDNF binding to 293T cells transfected with a GDNFR-α cDNA clone in pBKRSV; low affinity site

| binding result [1] | Kd [2] [nM] | Kd [3] [nM] | Kd [4] [nM] | Kd [5] [nM] | ratio of [125I]GDNF bound in the absence and presence of unlabeled GDNF [6] | ratio of [125I]GDNF bound in the absence and presence of unlabeled GDNF [7] | ratio of [125I]GDNF bound in the absence and presence of unlabeled GDNF [8] | Kd [9] [nM] | Binder |
| --- | --- | --- | --- | --- | --- | --- | --- | --- | --- |
| binds | ~0.2 | ~0.002 | 0.332 | 0.0015 | 12.8 | 8 | 16 | ~0.5 | glial cell line-derived neurotrophic factor (GDNF), recombinant human (ligand, UniProt P39905 78-211, looked up, radio-iodinated ([125I]) in the binding and cross-linking assays; unlabeled as competitor and in the phosphorylation assays, mature; also called unlabeled GDNF) SPDKQMAVLPRRERNRQAAAANPENSRGKGRRGQRGKNRGCVLTAIHLNVTDLGLGYETKEELIFRYCSGSCDAAETTYDKILKNLSRNRRLVSDKVGQACCRPIAFDDDLSFLDDNLVYHILRKHSAKRCGCI |
| binds | – | – | – | – | – | – | – | – | neurturin, recombinant human (ligand, UniProt Q99748 96-197, looked up, radio-iodinated ([125I]) in the binding and cross-linking assays; unlabeled as competitor and in the phosphorylation assays, mature; also called NTN) ARLGARPCGLRELEVRVSELGLGYASDETVLFRYCAGACEAAARVYDLGLRRLRQRRRLRRERVRAQPCCRPTAYEDEVSFLDAHSRYHTVHELSARECACV |
